Reference: paper PMC13486763

Molecular target: Porcine RNA polymerase II (porcine) (UniProt I3LGP4)
Experiment: mass photometry; Pol II or Pol II-Gdown1 complex with GPN1-GPN3 and/or RPAP2 in a 1:2:2 molar ratio, 30 minutes at 4 °C; measured at 20 nM; 20 mM HEPES-NaOH pH 7.9, 100 mM NaCl, 2 mM MgCl2, 10 µM ZnCl2, 1 mM DTT

“Porcine RNA polymerase II (from UniProt I3LGP4 127-1300; P60899 1-125; A0A4X1VYD0 1-67; A0A8D0JYF1 1-58) (complex)” showed a stoichiometry N of 2.
